# According to patent US20260317399 (published 2026):
# Where two headings read alike, the source gives them in different places.
# T1: FcgRIIaH (human, UniProt P12318)
# T1 chain: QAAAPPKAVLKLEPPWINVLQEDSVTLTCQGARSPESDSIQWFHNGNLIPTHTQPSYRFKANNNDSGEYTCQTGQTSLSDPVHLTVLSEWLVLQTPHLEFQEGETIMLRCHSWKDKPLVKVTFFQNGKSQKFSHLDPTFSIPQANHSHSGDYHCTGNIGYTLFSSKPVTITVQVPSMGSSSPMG
# T2: FcgRIa (human, UniProt P12314)
# T2 chain: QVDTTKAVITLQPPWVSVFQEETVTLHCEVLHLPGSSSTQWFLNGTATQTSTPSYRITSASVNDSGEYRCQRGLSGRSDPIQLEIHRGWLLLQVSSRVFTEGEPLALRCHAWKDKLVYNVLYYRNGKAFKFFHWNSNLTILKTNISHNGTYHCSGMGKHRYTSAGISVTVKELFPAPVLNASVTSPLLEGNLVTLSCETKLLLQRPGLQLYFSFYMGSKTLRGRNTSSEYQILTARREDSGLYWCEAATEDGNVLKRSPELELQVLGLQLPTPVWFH
# How the values were obtained:
# Assay in all cases: SPR
# FcgRIIaH [1] = molecular target: T1, FcgRIIaH
# FcgRIIIaV [2] = molecular target: T3, FcgRIIIaV (human, UniProt P08637)
# FcgRIIIaV [3] = molecular target: T3, FcgRIIIaV; remark: listed apart in the source
# FcgRIIaH [4] = molecular target: T1, FcgRIIaH
# FcgRIa = molecular target: T2, FcgRIa
# T3 sequence (P08637 17-208 F176V): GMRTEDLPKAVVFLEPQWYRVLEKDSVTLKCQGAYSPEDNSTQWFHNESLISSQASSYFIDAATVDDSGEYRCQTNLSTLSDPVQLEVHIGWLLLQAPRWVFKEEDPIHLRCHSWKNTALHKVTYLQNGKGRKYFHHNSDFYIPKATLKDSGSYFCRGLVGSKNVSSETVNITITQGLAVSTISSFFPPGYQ
Binder,Kd (FcgRIIaH [1]),Kd (FcgRIIIaV [2]),Kd (FcgRIIIaV [3]),Kd (FcgRIIaH [4]),Kd (FcgRIa)
IL6R-BP259/IL6R-L (antibody) chain 1: QVQLQESGPGLVKPSETLSLTCAVSGHSISHDHAWSWVRQPPGEGLEWIGFISYSGITNYNPSLQGRVTISRDNSKNTLYLQMNSLRAEDTAVYYCARSLARTTAMDYWGEGTLVTVSSASTKGPDVFPLAPSSKSTSGGTAALGCLVKDYFPEPVTVSWNSGALTSGVHTFPAVLQSSGLYSLSSVVTVPSSSLGTQTYICNVNHKPSNTKVDKKVEPKSCDKTHTCPPCPAPDLLGDDSVFLFPPKPKDTLMISRTPEVTCVVVDVSDEDGEVKFNWYVDGVEVHNAKTKPREEQDNSTYRVVSVLTVLHQDWLNGKEYKCKVSNKALPRPIEKTISKAKGQPREPQVYTLPPSRDELTKNQVSLTCLVKGFYPSDIAVEWESNGQPENNYKTTPPVLDSDGSFFLYSKLTVDKSRWQQGNVFSCSVMHEALHNHYTQESLSLSP chain 2: not shown,18 µM,11 µM,,,
IL6R-BP256/IL6R-L (antibody) chain 1: QVQLQESGPGLVKPSETLSLTCAVSGHSISHDHAWSWVRQPPGEGLEWIGFISYSGITNYNPSLQGRVTISRDNSKNTLYLQMNSLRAEDTAVYYCARSLARTTAMDYWGEGTLVTVSSASTKGPDVFPLAPSSKSTSGGTAALGCLVKDYFPEPVTVSWNSGALTSGVHTFPAVLQSSGLYSLSSVVTVPSSSLGTQTYICNVNHKPSNTKVDKKVEPKSCDKTHTCPPCPAPDLLGDDSVFLFPPKPKDTLMISRTPEVTCVVVDVSDEDGEVKFNWYVDGVEVHNAKTKPREEQYNSTYRVVSVLTVLHQDWLNGKEYKCKVSNKALPRPIEKTISKAKGQPREPQVYTLPPSRDELTKNQVSLTCLVKGFYPSDIAVEWESNGQPENNYKTTPPVLDSDGSFFLYSKLTVDKSRWQQGNVFSCSVMHEALHNHYTQESLSLSP chain 2: not shown,21 µM,11 µM,,,
BP557 (antibody) chain 1: QVQLQESGPGLVKPSETLSLTCAVSGHSISHDHAWSWVRQPPGEGLEWIGFISYSGITNYNPSLQGRVTISRDNSKNTLYLQMNSLRAEDTAVYYCARSLARTTAMDYWGEGTLVTVSSASTKGPSVFPLAPSSKSTSGGTAALGCLVKDYFPEPVTVSWNSGALTSGVHTFPAVLQSSGLYSLSSVVTVPSSSLGTQTYICNVNHKPSNTKVDKKVEPKSCDKTHTCPPCPAPELLGDDSVFLFPPKPKDTLMISRTPEVTCVVVDVGDEDGEVKFNWYVDGVEVHNAKTKPREEQDNSTYRVVSVLTVLHQDWLNGKEYKCKVSNKALPRPIEKTISKAKGQPREPQVYTLPPSRDELTKNQVSLTCLVKGFYPSDIAVEWESNGQPENNYKTTPPVLDSDGSFFLYSKLTVDKSRWQQGNVFSCSVMHEALHNHYTQESLSLSP chain 2: not shown,,,,,0.013 µM
IL6R-BP257/IL6R-L (antibody) chain 1: QVQLQESGPGLVKPSETLSLTCAVSGHSISHDHAWSWVRQPPGEGLEWIGFISYSGITNYNPSLQGRVTISRDNSKNTLYLQMNSLRAEDTAVYYCARSLARTTAMDYWGEGTLVTVSSASTKGPEVFPLAPSSKSTSGGTAALGCLVKDYFPEPVTVSWNSGALTSGVHTFPAVLQSSGLYSLSSVVTVPSSSLGTQTYICNVNHKPSNTKVDKKVEPKSCDKTHTCPPCPAPDLLGDDSVFLFPPKPKDTLMISRTPEVTCVVVDVSDEDGEVKFNWYVDGVEVHNAKTKPREEQYNSTYRVVSVLTVLHQDWLNGKEYKCKVSNKALPRPIEKTISKAKGQPREPQVYTLPPSRDELTKNQVSLTCLVKGFYPSDIAVEWESNGQPENNYKTTPPVLDSDGSFFLYSKLTVDKSRWQQGNVFSCSVMHEALHNHYTQESLSLSP chain 2: not shown,39 µM,19 µM,,,
IL6R-BP408/IL6R-L (antibody) chain 1: QVQLQESGPGLVKPSETLSLTCAVSGHSISHDHAWSWVRQPPGEGLEWIGFISYSGITNYNPSLQGRVTISRDNSKNTLYLQMNSLRAEDTAVYYCARSLARTTAMDYWGEGTLVTVSSASTKGPSVFPLAPSSKSTSGGTAALGCLVKDYFPEPVTVSWNSGALTSGVHTFPAVLQSSGLYSLSSVVTVPSSSLGTQTYICNVNHKPSNTKVDKKVEPKSCDKTHTCPPCPAPDLQGDDSVFLFPPKPKDTLMISRTPEVTCVVVDVSEEDGEVKFNWYVDGVEVHNAKTKPREEQDNSTYRVVSVLTVLHQDWLNGKEYKCKVSNKALPRPIEKTISKAKGQPREPQVYTLPPSRDELTKNQVSLTCLVKGFYPSDIAVEWESNGQPENNYKTTPPVLDSDGSFFLYSKLTVDKSRWQQGNVFSCSVMHEALHNHYTQESLSLSP chain 2: not shown,,,50 µM,77 µM,

# Continued, values first:
Kd (FcgRIIaH [1]),Kd (FcgRIIIaV [2]),Kd (FcgRIIIaV [3]),Kd (FcgRIIaH [4]),Kd (FcgRIa),Binder
3.9 µM,21 µM,,,,IL6R-BP260/IL6R-L (antibody) chain 1: QVQLQESGPGLVKPSETLSLTCAVSGHSISHDHAWSWVRQPPGEGLEWIGFISYSGITNYNPSLQGRVTISRDNSKNTLYLQMNSLRAEDTAVYYCARSLARTTAMDYWGEGTLVTVSSASTKGPEVFPLAPSSKSTSGGTAALGCLVKDYFPEPVTVSWNSGALTSGVHTFPAVLQSSGLYSLSSVVTVPSSSLGTQTYICNVNHKPSNTKVDKKVEPKSCDKTHTCPPCPAPDLLGDDSVFLFPPKPKDTLMISRTPEVTCVVVDVSDEDGEVKFNWYVDGVEVHNAKTKPREEQDNSTYRVVSVLTVLHQDWLNGKEYKCKVSNKALPRPIEKTISKAKGQPREPQVYTLPPSRDELTKNQVSLTCLVKGFYPSDIAVEWESNGQPENNYKTTPPVLDSDGSFFLYSKLTVDKSRWQQGNVFSCSVMHEALHNHYTQESLSLSP chain 2: not shown
,,31 µM,8.2 µM,,IL6R-AP029/IL6R-BP408/IL6R-L (antibody) chain 1: QVQLQESGPGLVKPSETLSLTCAVSGHSISHDHAWSWVRQPPGEGLEWIGFISYSGITNYNPSLQGRVTISRDNSKNTLYLQMNSLRAEDTAVYYCARSLARTTAMDYWGEGTLVTVSSASTKGPSVFPLAPSSKSTSGGTAALGCLVKDYFPEPVTVSWNSGALTSGVHTFPAVLQSSGLYSLSSVVTVPSSSLGTQTYICNVNHKPSNTKVDKKVEPKSCDKTHTCPPCPAPDLLGDDSVFLFPPKPKDTLMISRTPEVTCVVVDVSEEDGEVKFNWYVDGVEVHNAKTKPREEQDNSTYRVVSVLTVLHQDWLNGKEYKCKVSNKALPRPIEKTISKAKGQPREPQVYTLPPSRKELTKNQVSLTCLVKGFYPSDIAVEWESNGQPENNYKTTPPVLDSDGSFFLYSKLTVDKSRWQQGNVFSCSVMHEALHNRYTQKSLSLSP chain 2: QVQLQESGPGLVKPSETLSLTCAVSGHSISHDHAWSWVRQPPGEGLEWIGFISYSGITNYNPSLQGRVTISRDNSKNTLYLQMNSLRAEDTAVYYCARSLARTTAMDYWGEGTLVTVSSASTKGPSVFPLAPSSKSTSGGTAALGCLVKDYFPEPVTVSWNSGALTSGVHTFPAVLQSSGLYSLSSVVTVPSSSLGTQTYICNVNHKPSNTKVDKKVEPKSCDKTHTCPPCPAPDLQGDDSVFLFPPKPKDTLMISRTPEVTCVVVDVSEEDGEVKFNWYVDGVEVHNAKTKPREEQDNSTYRVVSVLTVLHQDWLNGKEYKCKVSNKALPRPIEKTISKAKGQPREPQVYTLPPSRDELTKNQVSLTCLVKGFYPSDIAVEWESNGQPENNYKTTPPVLDSDGSFFLYSKLTVDKSRWQQGNVFSCSVMHEALHNHYTQESLSLSP chain 3: not shown
,,38 µM,38 µM,,IL6R-BP419/IL6R-L (antibody) chain 1: QVQLQESGPGLVKPSETLSLTCAVSGHSISHDHAWSWVRQPPGEGLEWIGFISYSGITNYNPSLQGRVTISRDNSKNTLYLQMNSLRAEDTAVYYCARSLARTTAMDYWGEGTLVTVSSASTKGPSVFPLAPSSKSTSGGTAALGCLVKDYFPEPVTVSWNSGALTSGVHTFPAVLQSSGLYSLSSVVTVPSSSLGTQTYICNVNHKPSNTKVDKKVEPKSCDKTHTCPPCPAPDLFGDDSVFLFPPKPKDTLMISRTPEVTCVVVDVSEEDGEVKFNWYVDGVEVHNAKTKPREEQDNSTYRVVSVLTVLHQDWLNGKEYKCKVSNKALPRPIEKTISKAKGQPREPQVYTLPPSRDELTKNQVSLTCLVKGFYPSDIAVEWESNGQPENNYKTTPPVLDSDGSFFLYSKLTVDKSRWQQGNVFSCSVMHEALHNHYTQESLSLSP chain 2: not shown
,,28 µM,9.4 µM,,IL6R-AP029/IL6R-BP409/IL6R-L (antibody) chain 1: QVQLQESGPGLVKPSETLSLTCAVSGHSISHDHAWSWVRQPPGEGLEWIGFISYSGITNYNPSLQGRVTISRDNSKNTLYLQMNSLRAEDTAVYYCARSLARTTAMDYWGEGTLVTVSSASTKGPSVFPLAPSSKSTSGGTAALGCLVKDYFPEPVTVSWNSGALTSGVHTFPAVLQSSGLYSLSSVVTVPSSSLGTQTYICNVNHKPSNTKVDKKVEPKSCDKTHTCPPCPAPDLLGDDSVFLFPPKPKDTLMISRTPEVTCVVVDVSEEDGEVKFNWYVDGVEVHNAKTKPREEQDNSTYRVVSVLTVLHQDWLNGKEYKCKVSNKALPRPIEKTISKAKGQPREPQVYTLPPSRKELTKNQVSLTCLVKGFYPSDIAVEWESNGQPENNYKTTPPVLDSDGSFFLYSKLTVDKSRWQQGNVFSCSVMHEALHNRYTQKSLSLSP chain 2: QVQLQESGPGLVKPSETLSLTCAVSGHSISHDHAWSWVRQPPGEGLEWIGFISYSGITNYNPSLQGRVTISRDNSKNTLYLQMNSLRAEDTAVYYCARSLARTTAMDYWGEGTLVTVSSASTKGPSVFPLAPSSKSTSGGTAALGCLVKDYFPEPVTVSWNSGALTSGVHTFPAVLQSSGLYSLSSVVTVPSSSLGTQTYICNVNHKPSNTKVDKKVEPKSCDKTHTCPPCPAPDLEGDDSVFLFPPKPKDTLMISRTPEVTCVVVDVSEEDGEVKFNWYVDGVEVHNAKTKPREEQDNSTYRVVSVLTVLHQDWLNGKEYKCKVSNKALPRPIEKTISKAKGQPREPQVYTLPPSRDELTKNQVSLTCLVKGFYPSDIAVEWESNGQPENNYKTTPPVLDSDGSFFLYSKLTVDKSRWQQGNVFSCSVMHEALHNHYTQESLSLSP chain 3: not shown
